Measurements reported in the Immune Epitope Database (IEDB).

Legend:
HLA-B*08:03 = assay: IEDB peptide-MHC binding, purified MHC/direct/fluorescence; filed as Kd, often an IC50 or EC50 that approximates it; ≥ and ≤ were set here for values at or beyond the usual limits of such assays; conditions: source organism: Bacillus cereus H3081.97
HLA-B*08:02 = assay: IEDB peptide-MHC binding, purified MHC/competitive/fluorescence; filed as Kd, often an IC50 or EC50 that approximates it; ≥ and ≤ were set here for values at or beyond the usual limits of such assays; conditions: source organism: Human immunodeficiency virus 1
HLA-B*39:01 = assay: as above; conditions: source organism: Human immunodeficiency virus 1
HLA-B*15:01 = assay: as above
HLA-A*30:01 = assay: as above
HLA-B*57:01 = assay: as above
HLA-A*11:01 = assay: as above
HLA-A*26:01 = assay: as above
HLA-B*15:17 = assay: as above
HLA-A*01:01 = assay: as above
HLA-B*48:01 = assay: as above; conditions: source organism: Salmonella enterica subsp. enterica serovar Typhi
HLA-B*58:01 = assay: as above; conditions: source organism: Salmonella enterica subsp. enterica serovar Typhi
HLA-A*02:03 = assay: as above; conditions: source organism: Salmonella enterica subsp. enterica serovar Typhi
HLA-B*27:05 = assay: as above; conditions: source organism: Salmonella enterica subsp. enterica serovar Typhi
HLA-A*69:01 = assay: as above; conditions: source organism: Salmonella enterica subsp. enterica serovar Typhi
HLA-B*38:01 = assay: as above; conditions: source organism: Salmonella enterica subsp. enterica serovar Typhi
HLA-B*40:01 = assay: as above; conditions: source organism: Salmonella enterica subsp. enterica serovar Typhi
HLA-A*03:01 = assay: as above; conditions: source organism: Salmonella enterica subsp. enterica serovar Typhi
HLA-A*02:01 = assay: as above; conditions: source organism: Salmonella enterica subsp. enterica serovar Typhi
HLA-B*15:09 = assay: as above; conditions: source organism: Salmonella enterica subsp. enterica serovar Typhi
HLA-B*08:01 = assay: as above; conditions: source organism: Salmonella enterica subsp. enterica serovar Typhi
HLA-A*31:01 = assay: as above; conditions: source organism: Salmonella enterica subsp. enterica serovar Typhi
HLA-A*02:06 = assay: as above; conditions: source organism: Salmonella enterica subsp. enterica serovar Typhi
[1] = source organism: Human immunodeficiency virus 1
[2] = source organism: Salmonella enterica subsp. enterica serovar Typhi

FPKVRAQEL showed a Kd (HLA-B*08:03) of 209 nM.

Sequence GTEEIRSLY has a Kd (HLA-B*08:02) of no less than 20000 nM, a Kd (HLA-B*39:01) of no less than 20000 nM and a Kd (HLA-B*15:01; [1]) of no less than 20000 nM. The Kd (HLA-A*30:01; [1]) was 13000 nM, the Kd (HLA-B*57:01; [1]) was no less than 20000 nM and the Kd (HLA-A*11:01; [1]) was no less than 20000 nM. For the same sequence, the Kd (HLA-A*26:01; [1]) was 429 nM, the Kd (HLA-B*15:17; [1]) was 60.5 nM and the Kd (HLA-A*01:01; [1]) was 12 nM.

With MSAIVSCRY the Kd (HLA-B*48:01) was no less than 20000 nM, the Kd (HLA-B*58:01) was 27.5 nM and the Kd (HLA-A*02:03) was no less than 20000 nM. The Kd (HLA-B*27:05) was no less than 20000 nM, the Kd (HLA-A*69:01) was no less than 20000 nM and the Kd (HLA-B*15:01; [2]) was 51.2 nM. The Kd (HLA-B*38:01) was no less than 20000 nM, the Kd (HLA-A*30:01; [2]) was 1400 nM and the Kd (HLA-B*40:01) was no less than 20000 nM. It also gave a Kd (HLA-B*57:01; [2]) of 237 nM, a Kd (HLA-A*11:01; [2]) of no less than 20000 nM and a Kd (HLA-A*03:01) of 882 nM. It also gave a Kd (HLA-A*02:01) of no less than 20000 nM, a Kd (HLA-B*15:09) of no less than 20000 nM and a Kd (HLA-B*08:01) of no less than 20000 nM. It also gave a Kd (HLA-A*26:01; [2]) of 235 nM, a Kd (HLA-A*31:01) of no less than 20000 nM and a Kd (HLA-B*15:17; [2]) of 2.4 nM. The Kd (HLA-A*02:06) was no less than 20000 nM and the Kd (HLA-A*01:01; [2]) was 4 nM.
